From PMC12173559

Molecular target: MERS-CoV receptor binding domain (RBD), biotinylated (MERS-CoV) (UniProt K9N5Q8)
Assay: BLI; […] (10 µg/mL) […] (SA) biosensor for 300 s; analyte in kinetic buffer (PBST, 0.1% BSA) […], association 120 s, dissociation 180 s; […]

alpaca DPP4 (receptor) gave a Kd of 58.4 nM.
rhesus monkey DPP4 (receptor) showed a Kd of 47.8 nM.
